In article PMC10411625, “Rationally designed stapled peptides allosterically inhibit PTBP1–RNA-binding†” (Chemical Science, 2023) one finds Kd and Ki data, which are given here for two molecules.

Positions of bridges follow the written chain, without caps; N, C: chain ends. Non-standard residues stand in square brackets, D forms with d. No end group written: not given here. S5 = C=CCCC[C@](C)(N)C(=O)O

Settings in all cases: both partners purified
Test [1] concerns the target T1, PTBP1 RRM1 (single first RNA-recognition motif with the α3-helix) (human).
T1 chain: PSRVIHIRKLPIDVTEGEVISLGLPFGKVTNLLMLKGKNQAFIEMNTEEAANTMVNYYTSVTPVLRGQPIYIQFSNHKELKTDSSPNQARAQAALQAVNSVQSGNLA
Nature of the test: fluorescence polarisation; direct binding: FITC-labelled P-6F titrated with the PTBP1 construct.

Test [2] deals with PTBP1 RRM12–L151G mutant (human). Described as above.
Test [3] addresses T1, PTBP1 RRM1 (single first …). Nature of the test: MST; microscale thermophoresis of P-6F with the PTBP1 constructs.
For test [4], the target named is PTBP1 RRM12–L151G mutant (human). The test is described as above.
The target in test [5] is T2, PTBP1 RRM1 and 2 combined (RRM12) (human).
T2 construct: Methods and construct limits are not in the main text (supplementary file)
Put plainly: fluorescence polarisation; competitive: peptide varied against RRM12 and the FAM-labelled RNA-2 tracer; Ki from loss of RNA binding.

B1: P-6F, FITC-labeled variant of P-6 (peptide)
chain: NQARAQAALQAVN
modifications: also: stitched hydrocarbon staple linking residues 145, 149 and 153, FITC label, place not given here
As to B1, the equilibrium dissociation constant (Kd) in test [1] is 18.6 µM; in the test with PTBP1 RRM12–L151G mutant [2], 20.4 µM; in test [3], 98.1 µM; in the test with PTBP1 RRM12–L151G mutant [4], 44.5 µM.

Consider NQ[S5]RAQ[S5]ALQAVN-NH2 (staple 3-7; also: staple alkene reduced) [P-2, i, i + 4 hydrocarbon-stapled peptide derived from the PTBP1 α3-helix], for which the Ki in test [5] is 11.6 µM.
